Results published in the supplement of paper PMC9112550, “Optimization of the antimicrobial peptide Bac7 by deep mutational scanning” (BMC Biology, 2022).

Test system: Escherichia coli TOP10
Test: shrunken log2 fold change of peptide-encoding DNA abundance (4.5 h post-induction vs induction); higher = less antimicrobial activity (less host growth inhibition)
Conditions: time post-induction: 4.5 h; library: site-saturation at positions 5, 18, 19, 20
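Also: peptides expressed intracellularly from a pBAD plasmid library in pooled LB shake-flask culture, induced with 0.3% L-arabinose, DNA abundance read by NGS, three biological replicates, DESeq2 with apeglm shrinkage.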

Going from RRIRCRPPRLPRPRPRPTIVPRP to RRIRERPPRLPRPRPRPTTIPRP, the “shrunken log2 fold change” value falls from -0.0931 to -0.627.

RRIRLRPPRLPRPRPRPVNAPRP and RRIRTRPPRLPRPRPRPDFNPRP are within 0.2 log units of each other in “shrunken log2 fold change” value: 0.0227 for the first, -0.177 for the second.

RRIRRRPPRLPRPRPRPKYDPRP and RRIRVRPPRLPRPRPRPWYRPRP are within 0.2 log units of each other in “shrunken log2 fold change” value: -0.466 for the first, -0.39 for the second.

First: RRIRSRPPRLPRPRPRPARHPRP
Second: RRIRQRPPRLPRPRPRPMEYPRP
The “shrunken log2 fold change” value of the first is higher: 0.277 for the first, -0.479 for the second.

Going from RRIRKRPPRLPRPRPRPWSKPRP to RRIRHRPPRLPRPRPRPFSQPRP, the “shrunken log2 fold change” value falls from 0.00888 to -0.302.

Compared with RRIRDRPPRLPRPRPRPFVCPRP, RRIRYRPPRLPRPRPRPTTCPRP is lower in “shrunken log2 fold change” value: -0.213 for the first, -0.923 for the second.

First: RRIRERPPRLPRPRPRPVEVPRP
Second: RRIRARPPRLPRPRPRPSYTPRP
The “shrunken log2 fold change” value of the first is lower: -0.209 for the first, 1.56 for the second.

Compared with RRIRKRPPRLPRPRPRPSLGPRP, RRIRRRPPRLPRPRPRPIYSPRP is lower in “shrunken log2 fold change” value: 0.343 for the first, -0.159 for the second.

RRIRNRPPRLPRPRPRPCMCPRP and RRIRDRPPRLPRPRPRPCSPPRP are within 0.2 log units of each other in “shrunken log2 fold change” value: 0.0188 for the first, 0.0779 for the second.

Going from RRIRPRPPRLPRPRPRPTTNPRP to RRIRARPPRLPRPRPRPEEHPRP, the “shrunken log2 fold change” value falls from 0.199 to -0.0106.

Compared with RRIRNRPPRLPRPRPRPWVRPRP, RRIRCRPPRLPRPRPRPPSPPRP is higher in “shrunken log2 fold change” value: -0.0742 for the first, 0.724 for the second.

First: RRIRNRPPRLPRPRPRPKMCPRP
Second: RRIRGRPPRLPRPRPRPVLWPRP
The “shrunken log2 fold change” value of the first is lower: -0.0269 for the first, 1 for the second.

RRIRTRPPRLPRPRPRPSASPRP and RRIRTRPPRLPRPRPRPDICPRP are within 0.2 log units of each other in “shrunken log2 fold change” value: -0.0732 for the first, 0.0407 for the second.

Compared with RRIRNRPPRLPRPRPRPTYTPRP, RRIRMRPPRLPRPRPRPKWVPRP is higher in “shrunken log2 fold change” value: -0.303 for the first, 0.466 for the second.

RRIRARPPRLPRPRPRPFEFPRP and RRIRNRPPRLPRPRPRPVDYPRP are within 0.2 log units of each other in “shrunken log2 fold change” value: 0.0786 for the first, -0.0368 for the second.

First: RRIRSRPPRLPRPRPRPEKRPRP
Second: RRIRMRPPRLPRPRPRPPTKPRP
The “shrunken log2 fold change” value of the first is lower: -0.0813 for the first, 0.508 for the second.

Compared with RRIRSRPPRLPRPRPRPKIAPRP, RRIRKRPPRLPRPRPRPPVMPRP is higher in “shrunken log2 fold change” value: 0.0525 for the first, 0.337 for the second.

RRIRWRPPRLPRPRPRPGCKPRP and RRIRYRPPRLPRPRPRPDNVPRP are within 0.2 log units of each other in “shrunken log2 fold change” value: 0.123 for the first, -0.0165 for the second.

Going from RRIRERPPRLPRPRPRPYKRPRP to RRIRHRPPRLPRPRPRPMGYPRP, the “shrunken log2 fold change” value rises from -0.905 to -0.134.

RRIRFRPPRLPRPRPRPVRIPRP and RRIRKRPPRLPRPRPRPVKSPRP are within 0.2 log units of each other in “shrunken log2 fold change” value: -0.0436 for the first, 0.155 for the second.

Going from RRIRSRPPRLPRPRPRPMSRPRP to RRIRKRPPRLPRPRPRPSRVPRP, the “shrunken log2 fold change” value rises from 0.0278 to 0.24.

RRIRNRPPRLPRPRPRPWDVPRP and RRIRGRPPRLPRPRPRPQYTPRP are within 0.2 log units of each other in “shrunken log2 fold change” value: -0.0115 for the first, -0.0367 for the second.

First: RRIRGRPPRLPRPRPRPANGPRP
Second: RRIRNRPPRLPRPRPRPTYIPRP
The “shrunken log2 fold change” value of the first is higher: 0.378 for the first, -0.603 for the second.

First: RRIRYRPPRLPRPRPRPEEPPRP
Second: RRIRYRPPRLPRPRPRPDWVPRP
The “shrunken log2 fold change” value of the first is higher: 0.115 for the first, -0.252 for the second.

RRIRYRPPRLPRPRPRPAIEPRP and RRIRFRPPRLPRPRPRPVMSPRP are within 0.2 log units of each other in “shrunken log2 fold change” value: 0.0193 for the first, -0.153 for the second.

RRIRQRPPRLPRPRPRPWLDPRP and RRIRPRPPRLPRPRPRPHTTPRP are within 0.2 log units of each other in “shrunken log2 fold change” value: 0.19 for the first, 0.0817 for the second.

RRIRMRPPRLPRPRPRPFHTPRP and RRIRVRPPRLPRPRPRPQTKPRP are within 0.2 log units of each other in “shrunken log2 fold change” value: 0.0481 for the first, 0.0433 for the second.

RRIRSRPPRLPRPRPRPDNRPRP and RRIRERPPRLPRPRPRPKAEPRP are within 0.2 log units of each other in “shrunken log2 fold change” value: -0.00987 for the first, 0.0519 for the second.

Compared with RRIRIRPPRLPRPRPRPCIAPRP, RRIRPRPPRLPRPRPRPMLRPRP is higher in “shrunken log2 fold change” value: -0.0579 for the first, 0.34 for the second.

First: RRIRERPPRLPRPRPRPFDNPRP
Second: RRIRDRPPRLPRPRPRPWSDPRP
The “shrunken log2 fold change” value of the first is higher: 3.45 for the first, -0.0204 for the second.

Going from RRIRTRPPRLPRPRPRPSNNPRP to RRIRERPPRLPRPRPRPAQGPRP, the “shrunken log2 fold change” value rises from -0.639 to 0.473.

Going from RRIRMRPPRLPRPRPRPFPWPRP to RRIRTRPPRLPRPRPRPCVSPRP, the “shrunken log2 fold change” value falls from 0.114 to -0.221.

First: RRIRYRPPRLPRPRPRPMLMPRP
Second: RRIRQRPPRLPRPRPRPAPWPRP
The “shrunken log2 fold change” value of the first is lower: -0.13 for the first, 0.548 for the second.

Going from RRIRMRPPRLPRPRPRPDTDPRP to RRIRHRPPRLPRPRPRPNQRPRP, the “shrunken log2 fold change” value rises from 0.0472 to 0.333.

RRIRIRPPRLPRPRPRPNWSPRP and RRIRLRPPRLPRPRPRPFASPRP are within 0.2 log units of each other in “shrunken log2 fold change” value: 0.0776 for the first, -0.062 for the second.

Compared with RRIRDRPPRLPRPRPRPPYAPRP, RRIRFRPPRLPRPRPRPCWQPRP is higher in “shrunken log2 fold change” value: 0.0432 for the first, 3.76 for the second.

Going from RRIRRRPPRLPRPRPRPVSVPRP to RRIRIRPPRLPRPRPRPKQWPRP, the “shrunken log2 fold change” value falls from 0.308 to -0.0255.

With RRIRSRPPRLPRPRPRPTNNPRP the “shrunken log2 fold change” value was -0.455.
